Structures can show the parent of a compound that is named as a salt. Starred links: 1 amine or outer side, 2 acyl side, 3 side chain; linkers in the order of their positions; H or OH if unused. Non-standard residues stand in square brackets, D forms with d. Residues, ends and D or L forms follow the SMILES beside them. Primed or numbered codes have the meaning given here. *: point of attachment. F4(amGlyDOTALu) = lutetium complex of (S)-2,2',2''-(10-(2-((2-((4-(2-amino-2-carboxyethyl)benzyl)amino)-2-oxoethyl)amino)-2-oxoethyl)-1,4,7,10-tetraazacyclododecane-1,4,7-triyl)triacetic acid (Phe with 4-aminomethyl-Gly-DOTA-Lu), O=C([O-])CN1CCN(CC(=O)[O-])CCN(CC(=O)NCC(=O)NCc2ccc(C[C@H](N[*:1])C(=O)[*:2])cc2)CCN(CC(=O)[O-])CC1.[Lu+3]; F(4OEtNHDOTA-Lu) = lutetium complex of (S)-2,2',2''-(10-(2-((2-(4-(2-amino-2-carboxyethyl)phenoxy)ethyl)amino)-2-oxoethyl)-1,4,7,10-tetraazacyclododecane-1,4,7-triyl)triacetic acid (Phe with 4-O-ethylamino-DOTA-Lu), O=C([O-])CN1CCN(CC(=O)[O-])CCN(CC(=O)NCCOc2ccc(C[C@H](N[*:1])C(=O)[*:2])cc2)CCN(CC(=O)[O-])CC1.[Lu+3]; F(4OEtNHDOTA-Ga) = gallium complex of (S)-2,2',2''-(10-(2-((2-(4-(2-amino-2-carboxyethyl)phenoxy)ethyl)amino)-2-oxoethyl)-1,4,7,10-tetraazacyclododecane-1,4,7-triyl)triacetic acid (Phe with 4-O-ethylamino-DOTA-Ga), O=C([O-])CN1CCN(CC(=O)[O-])CCN(CC(=O)NCCOc2ccc(C[C@H](N[*:1])C(=O)[*:2])cc2)CCN(CC(=O)[O-])CC1.[Ga+3]; F(4amPEG2NHDOTA-Lu)″ = lutetium (S)-2,2',2''-(10-(1-(4-(2-amino-2-carboxyethyl)phenyl)-3,12-dioxo-5,8-dioxa-2,11-diazatridecan-13-yl)-1,4,7,10-tetraazacyclododecane-1,4,7-triyl)triacetic acid, O=C([O-])CN1CCN(CC(=O)[O-])CCN(CC(=O)NCCOCCOCC(=O)NCc2ccc(C[C@H](N[*:1])C(=O)[*:2])cc2)CCN(CC(=O)[O-])CC1.[Lu+3]; F(4amPEG2NHAAZTA-Lu) = lutetium complex of (S)-2,2'-((6-(1-(4-(2-amino-2-carboxyethyl)phenyl)-3,12-dioxo-5,8-dioxa-2,11-diazahexadecan-16-yl)-1,4-bis(carboxymethyl)-1,4-diazepan-6-yl)azanediyl)diacetic acid (Phe with 4-aminomethyl-PEG2-AAZTA-L; K(COpipzaa) = N6-(4-(carboxymethyl)piperazine-1-carbonyl)-L-lysine, O=C(NCCCC[C@H](N[*:1])C(=O)[*:2])N1CCN(CC(=O)[*:3])CC1; COpipzaa″ = 4-(carboxymethyl)piperazine-1-carbonyl on Lys N6, O=C(O)CN1CCN(C(=O)*)CC1; COpipzaa = 4-(carboxymethyl)piperazine-1-carbonyl, O=C(O)CN1CCN(C(=O)*)CC1; X4 = 4‑(carboxymethyl)piperazine‑1‑carbonyl, O=C(O)CN1CCN(C(=O)*)CC1; hS(Pr) = O-propyl-L-homoserine, CCCOCC[C@H](N[*:1])C(=O)[*:2]; DOTA = O=C(O)CN1CCN(CC(=O)O)CCN(CC(=O)*)CCN(CC(=O)O)CC1; AEF = NCCOc1ccc(C[C@H](N)C(=O)O)cc1; mTyr = N[C@@H](Cc1cccc(O)c1)C(=O)O; NMeF = CN[C@@H](Cc1ccccc1)C(=O)O; Ahp(2) = CCCCC[C@H](N)C(=O)O; hSer = N[C@@H](CCO)C(=O)O
Tests used:
mouse FAP [1] = target: T1, mouse FAP (Mus musculus, UniProt P97321); assay: Enzymatic FAP competition assay (Z-Gly-Pro-AMC fluorescence), mouse FAP; assay type: biochemical; conditions: read-out: m. FAP, Enz., IC50
T1 construct: biotinylated His, Avi tag, mouse FAP (26-761, FAP-M82Q5); His; Avi tag (biotinylated); purchased AcroBiosystems FAP-M82Q5
T1 sequence (P97321 26-761): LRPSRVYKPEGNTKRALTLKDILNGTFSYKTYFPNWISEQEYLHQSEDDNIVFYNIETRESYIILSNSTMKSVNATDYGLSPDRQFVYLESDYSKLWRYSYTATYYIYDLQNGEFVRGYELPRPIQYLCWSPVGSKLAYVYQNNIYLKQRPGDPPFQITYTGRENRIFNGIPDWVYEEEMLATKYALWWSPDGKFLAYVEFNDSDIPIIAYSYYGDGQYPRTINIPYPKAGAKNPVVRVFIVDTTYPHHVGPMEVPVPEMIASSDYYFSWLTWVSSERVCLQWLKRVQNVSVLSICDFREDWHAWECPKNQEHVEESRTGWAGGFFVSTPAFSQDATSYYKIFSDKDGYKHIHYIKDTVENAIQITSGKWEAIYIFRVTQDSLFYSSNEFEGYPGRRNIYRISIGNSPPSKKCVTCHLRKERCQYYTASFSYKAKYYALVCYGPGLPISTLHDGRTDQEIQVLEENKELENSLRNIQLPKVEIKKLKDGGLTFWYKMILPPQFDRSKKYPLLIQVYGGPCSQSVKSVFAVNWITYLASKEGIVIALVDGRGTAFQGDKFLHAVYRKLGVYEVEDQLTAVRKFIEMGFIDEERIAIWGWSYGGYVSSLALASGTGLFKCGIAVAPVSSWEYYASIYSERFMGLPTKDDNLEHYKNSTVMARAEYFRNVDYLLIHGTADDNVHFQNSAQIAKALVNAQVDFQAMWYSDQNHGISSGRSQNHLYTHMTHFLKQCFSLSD
Method in brief: (§1)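 Biotinylated His/Avi-tagged FAP ectodomain (human 26-760, mouse 26-761) at 0.01 nM, preincubated 24 h with peptides (14 concentrations, up to 1 μM) in pH 7.5 phosphate, 150 mM NaCl, 0.05% Tween20, 1% DMSO. Then 50 μM Z-Gly-Pro-AMC, 4 h at 22-24° C; AMC fluorescence (380/460 nm) gave IC50 from duplicate points.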

human FAP = target: T2, human FAP (Homo sapiens, UniProt Q12884); assay: Enzymatic FAP competition assay (Z-Gly-Pro-AMC fluorescence), human FAP; assay type: biochemical; conditions: read-out: h. FAP, Enz., IC50
T2 construct: the biotinylated His, Avi tag, human FAP (26-760, FAP-H82Q6); His; Avi tag (biotinylated); purchased AcroBiosystems FAP-H82Q6
T2 sequence (Q12884 26-760): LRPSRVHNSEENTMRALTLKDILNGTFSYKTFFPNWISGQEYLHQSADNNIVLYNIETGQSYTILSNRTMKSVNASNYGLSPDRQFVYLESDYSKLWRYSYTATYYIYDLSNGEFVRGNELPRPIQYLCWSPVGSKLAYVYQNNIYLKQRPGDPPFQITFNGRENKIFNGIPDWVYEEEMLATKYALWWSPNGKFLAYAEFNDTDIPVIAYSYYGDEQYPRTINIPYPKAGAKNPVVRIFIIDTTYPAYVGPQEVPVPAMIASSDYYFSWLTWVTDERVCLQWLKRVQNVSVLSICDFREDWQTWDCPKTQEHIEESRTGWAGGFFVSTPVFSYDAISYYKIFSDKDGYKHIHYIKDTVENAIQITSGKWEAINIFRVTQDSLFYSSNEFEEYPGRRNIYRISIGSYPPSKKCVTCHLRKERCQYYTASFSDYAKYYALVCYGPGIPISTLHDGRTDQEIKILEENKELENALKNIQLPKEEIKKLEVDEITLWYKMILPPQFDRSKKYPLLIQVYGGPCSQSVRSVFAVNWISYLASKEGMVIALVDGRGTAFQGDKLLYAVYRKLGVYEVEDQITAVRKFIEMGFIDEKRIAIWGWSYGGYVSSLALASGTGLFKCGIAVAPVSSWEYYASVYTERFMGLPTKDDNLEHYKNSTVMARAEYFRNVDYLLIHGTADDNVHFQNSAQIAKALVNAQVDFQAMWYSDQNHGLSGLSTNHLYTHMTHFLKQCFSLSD
Method in brief: as §1

mouse FAP [2] = target: T1, mouse FAP; assay: Surface plasmon resonance (SPR) for peptide affinity, mouse FAP; assay type: binding
Method in brief: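 Biotinylated His/Avi-tagged FAP ectodomains (human 26-760, mouse 26-761) captured or immobilized on Biacore sensor chips; peptides run at 25 °C in HBS-EP+ pH 7.6 with 2% DMSO, single-cycle kinetics, 8 concentrations. KD from 1:1 binding-model fit of sensorgrams.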

Compound	IC50 (mouse FAP [1])	IC50 (human FAP)	Kd (mouse FAP [2])
CCCCC[C@@H]1NC(=O)[C@H](Cc2ccc(OCCNC(=O)CN3CCN(CC(=O)O)CCN(CC(=O)O)CCN(CC(=O)O)CC3)cc2)NC(=O)[C@H](Cc2ccccc2)N(C)C(=O)CNC(=O)[C@H](CCO)NC(=O)[C@H]2CCCN2C(=O)[C@H](CC(=O)O)NC(=O)[C@H](Cc2ccc(O)cc2)NC(=O)CNC(=O)[C@H](Cc2c[nH]c3ccccc23)NC1=O [Example B26, hSer-Gly-NMePhe-F(4OEtNHDOTA)-Ahp-Trp-Gly-Tyr-Asp-D-Pro, TFA salt] (cyclo([hSer]G[NMeF][AEF](DOTA)[Ahp(2)]WGYD[dP]))	0.117 nM	0.027 nM	0.105 nM
CCCCC[C@@H]1NC(=O)[C@H](Cc2ccc(O)cc2)NC(=O)[C@H](Cc2ccccc2)N(C)C(=O)CNC(=O)CNC(=O)[C@H]2CCCN2C(=O)[C@H](CC(=O)O)NC(=O)[C@H](Cc2cccc(O)c2)NC(=O)CNC(=O)[C@H](Cc2c[nH]c3ccccc23)NC1=O [Example A14, Gly-Gly-NMePhe-Tyr-Ahp-Trp-Gly-F(3OH)-Asp-D-Pro] (cyclo([Ahp(2)]WG[mTyr]D[dP]GG[NMeF]Y))	0.37 nM	0.092 nM	0.239 nM
CCCCC[C@@H]1NC(=O)[C@H](Cc2ccc(O)cc2)NC(=O)[C@H](Cc2ccccc2)N(C)C(=O)CNC(=O)CNC(=O)[C@H]2CCCN2C(=O)[C@H](CCCCNC(C)=O)NC(=O)[C@H](Cc2ccc(O)cc2)NC(=O)CNC(=O)[C@H](Cc2c[nH]c3ccccc23)NC1=O [Example A55, Gly-Gly-NMePhe-Tyr-Ahp-Trp-Gly-Tyr-K(Ac)-D-Pro] (cyclo([Ahp(2)]WGYK(Ac)[dP]GG[NMeF]Y))	84 nM	24 nM	135 nM

Continued, values first:

IC50 (mouse FAP [1])	IC50 (human FAP)	Kd (mouse FAP [2])	Compound
0.35 nM	0.098 nM	0.34 nM	K(COpipzaa)-Gly-NMePhe-F(4OEtNHDOTA-Lu)-Ahp-Trp-Gly-Tyr-Asp-D-Pro (cyclo(K(COpipzaa″)G[NMeF][F(4OEtNHDOTA-Lu)][Ahp(2)]WGYD[dP]); also: Lu complex) [Example C25]
0.03 nM	0.016 nM	< 0.031 nM	Pro-Gly-NMePhe-F(4amPEG2NHDOTA-Lu)-hS(Pr)-Trp-Gly-K(COpipzaa)-Asp-D-Pro (cyclo(PG[NMeF][F(4amPEG2NHDOTA-Lu)″][hS(Pr)]WGK(X4)D[dP])) [Example C20]
0.044 nM	0.017 nM	< 0.027 nM	Gly-Gly-NMePhe-F(4amPEG2NHAAZTA-Lu)-hS(Pr)-Trp-Gly-K(COpipzaa)-Asp-D-Pro (cyclo(GG[NMeF][F(4amPEG2NHAAZTA-Lu)][hS(Pr)]WGK(COpipzaa)D[dP]); also: Lu complex) [Example C32]
0.024 nM	0.01 nM	0.032 nM	Gly-Gly-NMePhe-F4(amGlyDOTALu)-Ahp-Trp-Gly-Tyr-Asp-D-Pro (cyclo(GG[NMeF][F4(amGlyDOTALu)][Ahp(2)]WGYD[dP]); also: Lu complex) [Example C9]
0.052 nM	0.046 nM	< 0.02 nM	Gly-Gly-NMePhe-F(4OEtNHDOTA-Ga)-Ahp-Trp-Gly-K(COpipzaa)-Asp-D-Pro (cyclo(GG[NMeF][F(4OEtNHDOTA-Ga)][Ahp(2)]WG[K(COpipzaa)]D[dP]); also: Ga complex of DOTA) [Example C50]
